Measurements: paper PMC6913123

Target: T1, DDX21 (Homo sapiens) (UniProt Q9NR30)
T1 sequence: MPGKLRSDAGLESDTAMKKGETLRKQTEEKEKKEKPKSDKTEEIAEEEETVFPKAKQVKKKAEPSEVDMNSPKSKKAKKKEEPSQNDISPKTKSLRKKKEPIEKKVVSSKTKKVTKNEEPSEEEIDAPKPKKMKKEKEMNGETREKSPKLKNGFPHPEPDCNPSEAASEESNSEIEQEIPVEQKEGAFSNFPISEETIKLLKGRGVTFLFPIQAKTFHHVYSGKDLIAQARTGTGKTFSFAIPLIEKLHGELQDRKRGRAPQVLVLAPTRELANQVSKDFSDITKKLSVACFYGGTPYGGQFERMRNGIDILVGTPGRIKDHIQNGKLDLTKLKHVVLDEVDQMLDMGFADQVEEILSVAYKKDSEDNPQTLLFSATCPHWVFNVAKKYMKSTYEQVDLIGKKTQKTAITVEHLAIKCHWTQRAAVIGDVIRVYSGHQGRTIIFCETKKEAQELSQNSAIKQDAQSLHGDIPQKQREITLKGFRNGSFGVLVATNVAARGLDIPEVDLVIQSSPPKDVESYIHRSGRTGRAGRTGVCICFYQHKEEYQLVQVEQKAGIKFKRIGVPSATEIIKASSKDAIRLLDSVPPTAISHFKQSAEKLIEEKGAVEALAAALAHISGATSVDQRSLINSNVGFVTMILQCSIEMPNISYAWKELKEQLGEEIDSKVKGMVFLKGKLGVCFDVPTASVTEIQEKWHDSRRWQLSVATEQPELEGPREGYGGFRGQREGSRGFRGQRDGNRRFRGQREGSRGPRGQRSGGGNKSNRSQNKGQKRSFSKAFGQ
Assay: EMSA

AGUGGCAUAAACAUGGGCUUUGGCGUCAGACAGCCCUGAGCGGGGCCCCAUUGCCCCACCCCCGAGGAAGGCGAGGGGGGGUGGCAGGGGGCUGCGGAAAGGGGCUGGGCUGGGUUGGGCUGUCUGCAGCUCUAGUCCAGGAGGCUGAGACUUCGAGAGGGACUUAGAGAAGGCAGACGCAUCCCGAACUCGCUGGAGGACAAGGCUCAGCUCUUGCCAGGCCAAAUUGAGAC [MAGED2 TV2 5'-UTR]
Kd: 100 nM
